Laboratory results reported in patent US20210395344A1 (TWIST BIOSCIENCE, published 2021).
Read-outs that look alike come from different tables or passages of the source.

Legend:
[1] = target: T1, SARS-CoV-2 Spike Glycoprotein S1 (subunit 1) (SARS-CoV-2, UniProt P0DTC2 16-685); assay: screening phage ELISA, mean
T1 construct: also called S1 Monomer; SARS-CoV-2 S1

[2] = target: T1, SARS-CoV-2 Spike Glycoprotein S1 …; assay: screening phage ELISA, mean; remark: listed apart in the source
[3] = target: T2, SARS-CoV-2 S1 (antigen of the Carterra SPR kinetics) (SARS-CoV-2, UniProt P0DTC2 16-685); assay: Carterra SPR
[4] = target: T3, COVID S1 RBM Fc fusion (Antigen 2) (SARS-CoV-2, UniProt P0DTC2 437-508); assay: phage ELISA
T3 construct: domain: RBM

[5] = target: T4, S1-Fc (SARS-CoV-2, UniProt P0DTC2 16-685); assay: phage ELISA
[6] = target: T2, SARS-CoV-2 S1 (antigen of the Carterra …); assay: Carterra SPR; remark: listed apart in the source
[7] = target: T3, COVID S1 RBM Fc fusion (Antigen 2); assay: phage ELISA; remark: listed apart in the source
[8] = target: T4, S1-Fc; assay: phage ELISA; remark: listed apart in the source

Binder	ELISA (Avg) [1]	ELISA (Avg) [2]	koff [3]	kon [3]	ELISA fold over background [4]	ELISA fold over background [5]	Kd [6]	koff [6]	kon [6]	ELISA fold over background [7]	ELISA fold over background [8]
1-23 (antibody, V domains shown) VH: EVQLLESGGGLVQPGGSLRLSCAASGFTFSSYAISWVRQAPGKGLEWVSIISGSGGSTYYADSVKGRFTISRDNSKNTLYLQMNSLRAEDTAVYYCAREGYRDYLWYFDLWGQGTLVTVSS VL: QSALTQPASVSGSPGQSITISCTGTSNDVGSYNLVSWYQQHPGKAPKLMIYEGNKRPSGVSNRFSGSKSGNTASLTISGLQAEDEADYYCCSYAGSYTVFGGGTKLTVL	23.1	23.1	–	–	–	–	–	–	–	–	–
1-2 (antibody, V domains shown, also called variant 1-2) VH: EVQLLESGGGLVQPGGSLRLSCAASGFTFSSQAMSWVRQAPGKGLEWVSAISGSGGGTYYADSVKGRFTISRDNSKNTLYLQMNSLRAEDTAVYYCAKDRRFGEFDPWGQGTLVTVSS VL: QSALTQPASVSGSPGQSITISCTGTSSGVGSYNLVSWYQQHPGKAPKLMIYEGIKRPSGVSNRFSGSKSGNTASLTISGLQAEDEADYYCCSYAGSSSFVVFGGGTKLTVL	–	–	0.0272 s⁻¹	1580 M⁻¹ s⁻¹	1.7 fold over background	1.7 fold over background	17200 nM	0.0272 s⁻¹	1580 M⁻¹ s⁻¹	1.7 fold over background	1.7 fold over background
1-27 (antibody, V domains shown, also called variant 1-27) VH: EVQLLESGGGLVQPGGSLRLSCAASGFTFSSYAMTWVRQAPGKGLEWVSAISGSGGGTYYADSVKGRFTISRDNSKNTLYLQMNSLRAEDTAVYYCASSSSWQFDYWGQGTLVTVSS VL: QSALTQPASVSGSPGQSITISCTGTSSYVGHYNLVSWYQQHPGKAPKLMIYEGSRRPSGVSNRFSGSKSGNTASLTISGLQAEDEADYYCCSYAGSYTHYVFGGGTKLTVL	–	–	0.00285 s⁻¹	227000 M⁻¹ s⁻¹	1.6 fold over background	1.3 fold over background	12.5 nM	0.00285 s⁻¹	227000 M⁻¹ s⁻¹	1.6 fold over background	1.3 fold over background
1-35 (antibody, V domains shown, also called variant 1-35) VH: EVQLLESGGGLVQPGGSLRLSCAASGFTFSNYAMSWVRQAPGKGLEWVSDISGSGGSTYYADSVKGRFTISRDNSKNTLYLQMNSLRAEDTAVYYCVKGTIPIFGVIRSAFDYWGQGTLVTVSS VL: QSALTQPASVSGSPGQSITISCTGTSSDVGSYSLVSWYQQHPGKAPKLMIYEGTKRPSGVSNRFSGSKSGNTASLTISGLQAEDEADYYCCSYAGSYSYVVFGGGTKLTVL	–	–	–	–	1.6 fold over background	–	–	–	–	1.6 fold over background	–
1-12 (antibody, V domains shown, also called variant 1-12) VH: EVQLLESGGGLVQPGGSLRLSCAASGITFSSYAMSWVRQAPGKGLEWVSGISGSGGSTYYADSVKGRFTISRDNSKNTLYLQMNSLRAEDTAVYYCAKHGSGTIFGVVIAKYYFDYWGQGTLVTVSS VL: QSALTQPASVSGSPGQSITISCTGTSSDVGHYNLVSWYQQHPGKAPKLMIYEGTKRPSGVSNRFSGSKSGNTASLTISGLQAEDEADYYCCSYAGSSSFVVFGGGTKLTVL	–	–	–	–	–	–	372 nM	–	–	–	–
1-31 (antibody, V domains shown, also called variant 1-31) VH: EVQLLESGGGLVQPGGSLRLSCAASGFTFSSYAMNWVRQAPGKGLEWVSAISGSGGSTFYADSVKGRFTISRDNSKNTLYLQMNSLRAEDTAVYYCTRPPYGDYGDYWGQGTLVTVSS VL: QSALTQPASVSGSPGQSITISCTGTSSDVGKYNLVSWYQQHPGKAPKLMIYEGSQRPSGVSNRFSGSKSGNTASLTISGLQAEDEADYYCCSYAGSRTPVVFGGGTKLTVL	–	–	0.000762 s⁻¹	20500 M⁻¹ s⁻¹	1.2 fold over background	15.7 fold over background	37.2 nM	0.000762 s⁻¹	20500 M⁻¹ s⁻¹	1.2 fold over background	15.7 fold over background
1-28 (antibody, V domains shown, also called variant 1-28) VH: EVQLLESGGGLVQPGGSLRLSCAASGFTFSSYGMSWVRQAPGKGLEWVSAISGSGGGTYYADSVKGRFTISRDNSKNTLYLQMNSLRAEDTAVYYCASSSSWQFDYWGQGTLVTVSS VL: QSALTQPASVSGSPGQSITISCTGTSSGVGSYNLVSWYQQHPGKAPKLMIYEGSQRPSGVSNRFSGSKSGNTASLTISGLQAEDEADYYCCSYAGSSTHYVFGGGTKLTVL	–	–	9.05 s⁻¹	1.23e+08 M⁻¹ s⁻¹	1.2 fold over background	1.1 fold over background	73.5 nM	9.05 s⁻¹	1.23e+08 M⁻¹ s⁻¹	1.2 fold over background	1.1 fold over background
1-3 (antibody, V domains shown, also called variant 1-3) VH: EVQLLESGGGLVQPGGSLRLSCAASGFTFSSQAMSWVRQAPGKGLEWVSAISGSGGGTYYADSVKGRFTISRDNSKNTLYLQMNSLRAEDTAVYYCAKDRRFGEFDPWGQGTLVTVSS VL: QSALTQPASVSGSPGQSITISCTGISSDVGSYNLVSWYQQHPGKAPKLMIYEGTKRPSGVSNRFSGSKSGNTASLTISGLQAEDEADYYCCSYAGSSSFVVFGGGTKLTVL	–	–	0.304 s⁻¹	1.42e+06 M⁻¹ s⁻¹	1.5 fold over background	1.5 fold over background	215 nM	0.304 s⁻¹	1.42e+06 M⁻¹ s⁻¹	1.5 fold over background	1.5 fold over background
1-4 (antibody, V domains shown, also called variant 1-4) VH: EVQLLESGGGLVQPGGSLRLSCAASGFTFSSQAMSWVRQAPGKGLEWVSAISGSGGGTYYADSVKGRFTISRDNSKNTLYLQMNSLRAEDTAVYYCAKDRRFGEFDPWGQGTLVTVSS VL: QSALTQPASVSGSPGQSITISCTGTSSDVGTYNLVSWYQQHPGKAPKLMIYEGSQRPSGVSNRFSGSKSGNTASLTISGLQAEDEADYYCCSYAGSSSFVVFGGGTKLTVL	–	–	0.124 s⁻¹	42000 M⁻¹ s⁻¹	1.1 fold over background	0.9 fold over background	2950 nM	0.124 s⁻¹	42000 M⁻¹ s⁻¹	1.1 fold over background	0.9 fold over background
1-30 (antibody, V domains shown, also called variant 1-30) VH: EVQLLESGGGLVQPGGSLRLSCAASGFTFSSYAMTWVRQAPGKGLEWVSAISGSGGSTFYADSVKGRFTISRDNSKNTLYLQMNSLRAEDTAVYYCTRPPYGDYGDYWGQGTLVTVSS VL: QSALTQPASVSGSPGQSITISCTGTSRDVGSYNLVSWYQQHPGKAPKLMIYEGTKRPSGVSNRFSGSKSGNTASLTISGLQAEDEADYYCCSYAGSRTPVVFGGGTKLTVL	–	–	0.00164 s⁻¹	43900 M⁻¹ s⁻¹	1.4 fold over background	5.6 fold over background	37.2 nM	0.00164 s⁻¹	43900 M⁻¹ s⁻¹	1.4 fold over background	5.6 fold over background
1-5 (antibody, V domains shown, also called variant 1-5) VH: EVQLLESGGGLVQPGGSLRLSCAASGFTFSSQAMSWVRQAPGKGLEWVSAISGSGGGTYYADSVKGRFTISRDNSKNTLYLQMNSLRAEDTAVYYCAKDRRFGEFDPWGQGTLVTVSS VL: QSALTQPASVSGSPGQSITISCTGTSSGVGSYNLVSWYQQHPGKAPKLMIYEASKRPSGVSNRFSGSKSGNTASLTISGLQAEDEADYYCCSYAGSYTFAVFGGGTKLTVL	–	–	0.054 s⁻¹	2150 M⁻¹ s⁻¹	1.4 fold over background	1.2 fold over background	25200 nM	0.054 s⁻¹	2150 M⁻¹ s⁻¹	1.4 fold over background	1.2 fold over background
1-20 (antibody, V domains shown, also called variant 1-20) VH: EVQLLESGGGLVQPGGSLRLSCAASGITFSSYAMSWVRQAPGKGLEWVSGISGSGGSTYYADSVKGRFTISRDNSKNTLYLQMNSLRAEDTAVYYCANHGSGTIFGVVIAKYYFDYWGQGTLVTVSS VL: QSALTQPASVSGSPGQSITISCTGTSSDVGHYNLVSWYQQHPGKAPKLMIYEGTKRPSGVSNRFSGSKSGNTASLTISGLQAEDEADYYCCSYAGSSSFVVFGGGTKLTVL	–	–	–	–	0.8 fold over background	–	–	–	–	0.8 fold over background	–
1-29 (antibody, V domains shown, also called variant 1-29) VH: EVQLLESGGGLVQPGGSLRLSCAASGFTFSSYAMYWVRQAPGKGLEWVSAISGSAGSTYYADSVKGRFTISRDNSKNTLYLQMNSLRAEDTAVYYCARDTNDFWSGYSIFDPWGQGTLVTVSS VL: QSALTQPASVSGSPGQSITISCTGTSSDIGSYNLVSWYQQHPGKAPKLMIYEGTKRPSGVSNRFSGSKSGNTASLTISGLQAEDEADYYCCSYAGSRTYVFGGGTKLTVL	–	–	0.00197 s⁻¹	535 M⁻¹ s⁻¹	0.9 fold over background	1 fold over background	3680 nM	0.00197 s⁻¹	535 M⁻¹ s⁻¹	0.9 fold over background	1 fold over background
1-49 (antibody, V domains shown, also called variant 1-49) VH: EVQLLESGGGLVQPGGSLRLSCAASGFTFSSYAMYWVRQAPGKGLEWVSAISGSAGSTYYADSVKGRFTISRDNSKNTLYLQMNSLRAEDTAVYYCARDTNDFWGQGTLVTVSS VL: QSALTQPASVSGSPGQSITISCTGTSSDIGSYNLVSWYQQHPGKAPKLMIYEGTKRPSGVSNRFSGSKSGNTASLTISGLQAEDEADYYCCSYAGSRTYVFGGGTKLTVL	–	–	–	–	0.8 fold over background	–	–	–	–	0.8 fold over background	–
1-48 (antibody, V domains shown, also called variant 1-48) VH: EVQLLESGGGLVQPGGSLRLSCAASGFTFSSHAMYWVRQAPGKGLEWVSAISGSAGSTYYADSVKGRFTISRDNSKNTLYLQMNSLRAEDTAVYYCAHDTKDFWSGYCIFDPWGQGTLVTVSS VL: QSALTQPASVSGSPGQSITISCTGTSSDIGSYNLVSWYQQHPGKAPKLMIYEGTKRPSGVSNRFSGSKSGNTASLTISGLQAEDEADYYCCSYAGSRTYVFGGGTKLTVL	–	–	–	–	0.8 fold over background	–	–	–	–	0.8 fold over background	–
